Literature values in article PMC5963937.

Molecular target: LPL (Homo sapiens) (UniProt P06858)
UniProt P06858, sequence (P06858 28-475): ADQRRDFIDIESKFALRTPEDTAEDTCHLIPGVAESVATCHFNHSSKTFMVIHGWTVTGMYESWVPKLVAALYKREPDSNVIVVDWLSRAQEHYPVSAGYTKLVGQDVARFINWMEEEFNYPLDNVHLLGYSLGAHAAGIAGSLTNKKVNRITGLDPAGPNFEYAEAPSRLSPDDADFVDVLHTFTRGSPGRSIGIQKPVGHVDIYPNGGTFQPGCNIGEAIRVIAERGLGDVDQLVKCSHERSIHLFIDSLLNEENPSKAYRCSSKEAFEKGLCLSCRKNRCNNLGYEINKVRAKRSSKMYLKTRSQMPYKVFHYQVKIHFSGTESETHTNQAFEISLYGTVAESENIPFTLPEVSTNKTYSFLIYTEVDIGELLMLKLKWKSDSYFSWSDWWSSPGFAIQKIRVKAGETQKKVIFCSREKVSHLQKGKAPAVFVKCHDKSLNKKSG

Kd: 25 nM
Substance: GPIHBP1 (from UniProt Q8IV16)
